For one data set, the system named is Odc2_C19 (Odc2). To be noted: 50 mM phosphate pH 5.5, 50 μM pyridoxal 5'-phosphate, 37°C; substrate 1-50 mM. The text has this:
HPLC of o-phthalaldehyde-derivatized amine product (decarboxylation), Michaelis-Menten fit on Odc2_C19 (Odc2)

Substrate in data set [1]: NCCCC[C@H](N)C(=O)O
The data set can be described thus: HPLC of o-phthalaldehyde-derivatized amine product (decarboxylation), Michaelis-Menten fit. The format is biochemical, Paucilactobacillus wasatchensis. The following applies: 50 mM phosphate pH 5.5, 50 μM pyridoxal 5'-phosphate, 37°C, substrate 1-50 mM.

The Km is the substrate concentration at which the rate is half of its maximum. As to `NCCCC[C@H](N)C(=O)O` [L-Lysine], in the data set on Odc2_C19 (Odc2), the Km is 20.2 mM.

B1: Odc1_Lw35 (Odc1) (Paucilactobacillus wasatchensis) (protein)
chain: MKLLGIACSEEAQKYFKTTRDIIDAEKDSDFTDVAAIVLTEDDLDLINKIDETHFDIPVFLITNDAAKIDKDLRAKIYHLIDDDAKYTNMYDGEIEAAAVEYEKKMMPPFFEELQKYADEGNLSFTTPGHHAGKFFMRHPAGRWLVNYYGENLFRSDLSSSDVAVGDLLTHGGAPLSAEQHAAKVFNADKTYFVMNGTSTSNAIVTSAAVAPGDLVLFDRNNHKSSYISALENAGGIPIYLQTERNPFGFIGGISDAVFNEKHIRELIAKVDPKRAKEKRPIRLAIIELGTYDGSIYDARQVVDRIGSLCDYIQFDSAWVGYEQFIPMMKPSSPLLLDLGPEDPGILVTQSVHKQQAALSQGSQIHKKDKHIKGQKRYITHKRFNNAYMKYTSTSPFYPMYASLDVNAYLMEGKAGAEMWKNTVKLGIEARKRMLNESKLFTPFIPTVVNGKKWEDGDTEEMADNLDFWRFKKGESWHSFEGYADNQYYIDPLKVMFKTPGINMETGEYEDFGIPATILASYLREHGIVPEKSDLNSILFLLTPAETKTKLDNLVNLILRFEDLIEKDEKLENVLPHVYADNASRYRGYTIRQLCQEMHNFYKQSNAKKFQKELFQEATLPEQAMTPYAADKELIRNNAELIPLQDIVGRVALEGGLPYPPGIFVIAPGERWTESAQKYFLILQDGINQFPGFSPEIQGVYNEPQADGKVKAYGYVLDDESVIKKN
notes: full length (native 726 aa), C-terminal His-tag (pEG-His1, BamHI/SalI), E. coli BL21(DE3), Ni-TED purified
For orientation: kcat means the number of substrate molecules converted per active site and unit of time at saturation. Turning to B1, in data set [1], the Michaelis constant (Km) is recorded as 16.0 ± 1.8 mM and the catalytic constant (kcat) amounted to 3 ± 0.1 s⁻¹.

Source of the values: article PMC8928434, “Production of Putrescine and Cadaverine by Paucilactobacillus wasatchensis” (Frontiers in Microbiology, 2022).
